Legend:
[1] = biological target: TGF-beta receptors on mink lung epithelial cells (ATCC CCL-64) (mink); test: cell-based or functional assay
[2] = biological target: total mouse IgG (Sigma-Aldrich) (mouse); test: 20 ng TGF-beta + 1 ug soluble total mouse IgG, PBS, room temperature, 5 min; Sepharose G-50 spin column eluate assayed by TGF-beta ELISA
[3] = biological target: Mouse IgG1 (eBioscience) (mouse); test: Sephadex G-50 gel filtration of the TGF-beta/IgG mixture (1:10 molar), fractions assayed by TGF-beta ELISA
[4] = biological target: Mouse IgG2a (eBioscience) (mouse); test: as above
[5] = biological target: total mouse IgG (Sigma-Aldrich) (mouse); test: 20 ng TGF-beta + 1 ug soluble total mouse IgG, PBS, 42 C, 5 min; Sepharose G-50 spin column eluate assayed by TGF-beta ELISA
[6] = biological target: total mouse IgG (Sigma-Aldrich) (mouse); test: 20 ng TGF-beta + 1 ug soluble total mouse IgG, 0.5x PBS with NaOH to pH 11, room temperature, 5 min; Sepharose G-50 spin column eluate assayed by TGF-beta ELISA
[7] = biological target: rat total IgG (Sigma-Aldrich) (rat); test: ELISA, rat total IgG on plate, 10 ng TGF-beta in 100 uL 0.1M Tris pH 7.4 (0 mM NaCl), 18 h 4 C, bound TGF-beta detected with TGF-beta 1 ELISA kit
[8] = biological target: rat total IgG (Sigma-Aldrich) (rat); test: ELISA, rat total IgG on plate, 10 ng TGF-beta in 100 uL 10% glycerol in 0.1M Tris pH 7.4, 18 h 4 C, bound TGF-beta detected with TGF-beta 1 ELISA kit
[9] = biological target: rat total IgG (Sigma-Aldrich) (rat); test: ELISA, rat total IgG on plate, 10 ng TGF-beta in 100 uL 10% glycerol in PBS, 18 h 4 C, bound TGF-beta detected with TGF-beta 1 ELISA kit
[10] = biological target: rat total IgG (Sigma-Aldrich) (rat); test: ELISA, rat total IgG on plate, 10 ng TGF-beta in 100 uL PBS, 18 h 4 C, bound TGF-beta detected with TGF-beta 1 ELISA kit

Row | Substance | Cell Viability (OD450/Control OD450) at 0.25 pg/mL TIGG (OD450/Control OD450) [1] | Cell Viability (OD450/Control OD450) at 2.5 pg/mL TIGG (OD450/Control OD450) [1] | Cell Viability (OD450/Control OD450) at 25 pg/mL TIGG (OD450/Control OD450) [1] | Cell Viability (OD450/Control OD450) at 250 pg/mL TIGG (OD450/Control OD450) [1] | Cell Viability (OD450/Control OD450) at 2500 pg/mL TIGG (OD450/Control OD450) [1] | further results
1 | Dissociated (Treated) TIGG | 0.621 | 0.645 | 0.651 | 0.651 | 0.616 | –
2 | Transforming growth factor-beta 1 (Peprotech) (from UniProt P01137 279-390) (ligand) | – | – | – | – | – | Net Absorbance (450) (absorbance (450)) [2]: 0.193; percent of TGF-beta eluting in the IgG-bound fraction [3]: 40 to 50%; percent of TGF-beta eluting in the IgG-bound fraction [4]: 40 to 50%; Net Absorbance (450) (absorbance (450)) [5]: 0.117; Net Absorbance (450) (absorbance (450)) [6]: 0.558
3 | TGF-beta (Leinco Technologies, St. Louis, Mo.) (ligand) | – | – | – | – | – | Net Absorbance (450) (absorbance (450)) [7]: 1.02; Net Absorbance (450) (absorbance (450)) [8]: 0.7; Net Absorbance (450) (absorbance (450)) [9]: 0; Net Absorbance (450) (absorbance (450)) [10]: 0.18
4 | purified mouse TIGG (Transforming Growth Factor-beta-bound IgG), intact | 0.965 | 0.924 | 0.897 | 0.817 | 0.678 | –
